We go through 16 sequences from the nanobody polyreactivity screen of Harvey et al. (2022).

This data set can be described thus: yeast display, Sf9 membrane polyspecificity reagent, FACS + sequencing; frameworks hold sequencing errors. A digest of the protocol:
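Sorting gates, low and high (top ~1%), were placed on anti-HA fluorescence to track expression and on streptavidin fluorescence to track reagent binding. A clone's polyreactivity label is taken from the gate it came out of. The reagent was 10% biotinylated, detergent-solubilized Sf9 membrane, applied for 1 hour at 4 °C to galactose-induced yeast display cells.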
For the sequence “QVQHVESGGGLVQAGGSLRLSCAASGSTFDRYAMGWNRQAPGKERELVAAISGGGGSTYYADSVKGRFTISRDNAKNTVYLQMNSLKPEDTAVYYCAKLLARGNRYDSWGQGTQLTVSS”, the “polyreactivity (PSR sort gate)” value is on record as “high polyreactivity”. For “QVQHVESGGGLVQAGGSLRLSCAASGSTFDYYAMGWYRQAPGKERELVAAISDSARSTFYADSVKGRFTISRDNAKNTVYLQMNSLKPEDTAVYYCAAYFWSYWRSEGYSWGQGTKVTVSS”, the “polyreactivity (PSR sort gate)” value is listed as “high polyreactivity”. For the sequence “QVQHVESGGGLVQAGGSLRLSCAASGSTFGYNDMGRYRQAPGKERELVAAIDTGVSTNYADSVKGRFTISRDNAKNTVYLQMNSLKPEDTAVYYCAKSGSAYWHSGWSVGFDYWGQGTQVTVSS”, the “polyreactivity (PSR sort gate)” value is “low polyreactivity”.

As for “QVQHVESGGGLVQAGGSLRLSCAASGSTFPTYAMGWYRQAPGKERELVADITWSGGSTYYADSVKGRFTISRDNAKNTVYLQMNSLKPEDTAVYYCNAAHRKGMYYWGQGTQVTVSS”, the “polyreactivity (PSR sort gate)” value was “high polyreactivity”.

With “QVQHVESGGGLVQAGGSLRLSCAASGSTFSYYAMGWSRQAPGKERELVAAISGSGASTYYADSVKGRFTISRDNAKNTVYLQMNSLKPEDTAVYYCAKYYVREHYDYWGQGTQVTVSS”, the “polyreactivity (PSR sort gate)” value was “low polyreactivity”. The entry for “QVQHVESGGGLVQAGGSLRLSCAASGSTFTGYTMGWYRQAPGKERELVASIRTYYADSVKGRFTISRDNAKNTVYLQMNSLKPEDTAVYYCAADFPSATGGYDYWGQGTQVTVSS” is “low polyreactivity”; for “QVQHVESGGGLVQAGGSLRLSCAASGSTFTSYALGWYRQAPGKERELVAAISKSGGSTYYADSVKGRFTISRDNAKNTVYLQMNSLKPEDTSVYYCAASYNVRSYSTSRFDYWGQGTQVTVSS” it is “low polyreactivity”.

As to “QVQHVESGGGLVQAGGSLRLSCAASGSTFTWYTMGWYRQAPGKERELVATIRKRGGSTYYADSVKGRFTISRDNAKNTVYLQMNSLKPEDTAVYYCAAVYKVHSGLYEYWGQGTQVTVSS”, the “polyreactivity (PSR sort gate)” value is given as “high polyreactivity”.

As for “QVQHVESGGGLVQAGGSLRLSCAASGSTFVQNAMGWYRQAPGKERELVAAISRSGGRTYYAYSVKGRFTISRDNAKNTVYLQMNSLKPEDTAVYYCAARYPVRPDDGYWGKGTQVTVSS”, the “polyreactivity (PSR sort gate)” value is listed as “high polyreactivity”. The result for “QVQHVESGGGLVQAGGSLRLSCAASGSTFWFNAMGWYRQATGKVRELVAAITSGSTYYADSVKGRFTISRDNAKNTVYLPMNSLQPEYTAVYYCASTEFTFYYSYDYWAQGTQVTVSS” reads “low polyreactivity”; that for “QVQHVESGGGLVQAGGSLRLSCAASGSTFWGYAMGWYRQAPGKERELVAAINWIGGSDTFYADSVKGRFTISRDNAKNTVYLQMNSLKPEDTAVYYCAATYYNLPYSWGYDSWGQGSQVTVSS”, “low polyreactivity”. With “QVQHVESGGGLVQAGGSLRLSCAASGSTFYGYAMGWYRQAPGKERELVARISSSSGRTYYADSVKGRFTISRDNAKNTVYLQMNSLKPEDTAVFYCAARFLWSVFGRKGGYWGQGTQVTVSS”, the “polyreactivity (PSR sort gate)” value is “low polyreactivity”. As to “QVQHVESGGGLVQAGGSLRLSCAASGSTLGGYVMGWYRQAPGKERELVASITYSGGSTRYADSVKGRFTISRDNAKNTVYLQMNSLKPEDTAVYYCAAGAQRTYYTYSFRRVGYDYDYWGQGTQVTVSS”, the “polyreactivity (PSR sort gate)” value was “low polyreactivity”.

For “QVQHVESGGGLVQAGGSLRLSCAASGSTSGKYAMGWYRQAPGKERELVAGITKGGGGTYYADSVKGRFTISRDNAKNTVYLQLNSLKPEVTAVYYCAKYYGSGYYIYDYWGQGTQVTVSS”, the “polyreactivity (PSR sort gate)” value is “low polyreactivity”. For the sequence “QVQHVESGGGLVQAGGSLRLSCAASGTTFYSYAMGWYRQAPGKERELVAAISWRTSSTYYADSVKGRFTISRDNAKNTVYLQMNSLKPEDTAVYYCAAETWLGSWRQVGMDYWGQGTQVTVSS”, the “polyreactivity (PSR sort gate)” value was “high polyreactivity”. “QVQHVESGGGLVQAGGSLRLSCAASGYTFGGNAMGWYRQAPGKERELVAAISSGGSTNYADSVKGRFTISRDNAKNTVYLQMNSLKPEDTAVYYCNKRGYYYWSGQDVASYDYWGQGTQLTVSS”: the “polyreactivity (PSR sort gate)” value is listed as “low polyreactivity”.
